Experimental findings from patent US20210147526A1 (PLIANT THERAPEUTICS, published 2021) are described below.

One may read the Kd as the concentration at which binding is half-saturated. What is called koff is a measure of how fast the partners let go of each other. One may read the kon as the second-order rate constant of association.

The target of experiment [1] is T1, Human Integrin α7β1 (human, UniProt Q13683 34-1038; P05556 21-728, limits assumed).
T1 construct: also called human α7β1 integrin
The experiment in a line: kinetics with RU read-out, integrin captured at 0.25 µg/mL, antibody as analyte, 1:1 binding model.

Experiment [2] has as its target T2, Mouse Integrin α7β1 (mouse, UniProt Q61738 34-1032; P09055 21-728, limits assumed).
T2 construct: also called murine α7β1 integrin
Described as above.

The next experiment deals with human α6β1 integrin (human, UniProt P23229 24-1011; P05556 21-728, limits assumed). The experiment in a line: dose titration on integrins (FIG. 11B).
The next experiment concerns the target human α5β1 integrin (human, UniProt P08648 42-995; P05556 21-728, limits assumed). The experiment in a line: dose titration on integrins (FIG. 11B).
In experiment [3] the target is T3, human integrin alpha-7 (ITGA7) co-transfected with integrin beta-1 precursor (ITGB1) on HEK-293T cells, wild … (human, UniProt P05556 21-798, limits assumed).
T3 construct: whole, on cells; also called target protein; wild-type (WT) target protein
The experiment in a line: high-throughput flow cytometry on HEK-293T cells with ITGA7 + ITGB1 against vector alone, 0.5 µg/ml. From the text:
(§1) Conditions for binding and screening of monoclonal antibodies and Fabs using high-throughput flow cytometry were optimized using wild-type target protein cloned into a proprietary vector and expressed in HEK-293T cells. The target protein is human integrin alpha-7 (ITGA7; UniProt ID Q13683; SEQ ID NO: 24). The binding of the VL3VHK20TFT monoclonal antibody and the VL3VHK20TFT Fab to HEK-293T cells co-transfected (1:1) with integrin beta-1 precursor (ITGB1) and integrin subunit alpha 7 (ITGA7) or with vector alone (negative control) was evaluated by high-throughput flow cytometry. The antibodies 3C12, 6A11, A1-1a M20, and A1-1a M24 were used as positive controls for ITGA7 binding.
(§2) Each point in FIG. 15 and FIG. 16 represents the mean of four replicates. The optimal screening concentration for each antibody or Fab (outlined in a box) was determined based on the raw signal values and signal-to-background calculations.

For experiment [4], the target named is T1, Human Integrin α7β1. The experiment in a line: comparison of the KD values of Table 8.
The target of experiment [5] is T2, Mouse Integrin α7β1. The experiment in a line: comparison of the KD values of Table 8.
Experiment [6] deals with cell surface integrin α7β1 (cells and species not stated). The experiment in a line: cell-based or functional assay.
The target in experiment [7] is T3, human integrin alpha-7 (ITGA7) …. The experiment in a line: high-throughput flow cytometry on HEK-293T cells with ITGA7 + ITGB1 against vector alone, 2.0 µg/ml.
Description: as §1, §2

Experiment [8] has as its target T4, ITGA7 mutant W979A on HEK-293T cells (human, UniProt P05556 21-798).
T4 construct: whole, on cells; Clone of the alanine-scan library of ITGA7
The experiment in a line: high-throughput flow cytometry on HEK-293T cells with the ITGA7 alanine mutant, high stringency, normalized to wild type. The method, then:
(§3) In order to map the epitope of VL3VHK20TFT, an alanine-scan library of the target protein (ITGA7; SEQ ID NO: 24) was constructed. Shotgun mutagenesis epitope mapping was performed using the general procedure described in Davidson and Doranz, 2014, Immunology 143, 13-20. Briefly, a mutation library of the target protein was created by high-throughput, site-directed mutagenesis. Each residue was individually mutated to alanine, with alanine codons mutated to serine. The mutant library was arrayed in 384-well microplates and transiently transfected into HEK-293T cells. Following transfection, cells were incubated with the indicated antibodies (VL3VHK20TFT Fab or 6A11 monoclonal antibody (mAh)) at concentrations predetermined using an independent immunofluorescence titration curve on wild type protein. The antibodies were detected using an Alexa Fluor 488-conjugated secondary antibody, and mean cellular fluorescence was determined using Intellicyt® iQue flow cytometry platform. […] This counterscreen strategy facilitates the exclusion of mutants that are locally misfolded or that have an expression defect.
(§4) The binding of VL3VHK20TFT Fab and 6A11 mAh to each mutant clone in an alanine scanning library of ITGA7 mutants was determined, in duplicate, by high-throughput flow cytometry. For each point, background fluorescence was subtracted from the raw data, which were then normalized to antibody (Ab) reactivity with wild-type (WT) target protein. For each mutant clone, the mean binding value was plotted as a function of expression (represented by control reactivity). To identify preliminary primary critical clones (red circles), a threshold (dashed lines) of >70% WT binding to control Ab and <20% WT binding to test Abs was applied.
In general terms: A flow cytometer gives signals particle by particle.

Experiment [9] has as its target T5, ITGA7 mutant W978A on HEK-293T cells (human, UniProt P05556 21-798).
T5 construct: whole, on cells; Clone of the alanine-scan library of ITGA7
The experiment is described as above. As to the method:
as §3, §4

The target of experiment [10] is T6, ITGA7 mutant R958A on HEK-293T cells (human, UniProt P05556 21-798).
T6 construct: whole, on cells; Clone of the alanine-scan library of ITGA7
Described as above. The method, then:
as §3, §4

Experiment [11] has as its target T7, ITGA7 mutant M976A on HEK-293T cells (human, UniProt P05556 21-798).
T7 construct: whole, on cells; Clone of the alanine-scan library of ITGA7
Described as above. As to the method: as §3, §4

T2 sequence (Q61738 other isoform, or with tags, fused parts or gaps limits assumed, chain 1 of 2): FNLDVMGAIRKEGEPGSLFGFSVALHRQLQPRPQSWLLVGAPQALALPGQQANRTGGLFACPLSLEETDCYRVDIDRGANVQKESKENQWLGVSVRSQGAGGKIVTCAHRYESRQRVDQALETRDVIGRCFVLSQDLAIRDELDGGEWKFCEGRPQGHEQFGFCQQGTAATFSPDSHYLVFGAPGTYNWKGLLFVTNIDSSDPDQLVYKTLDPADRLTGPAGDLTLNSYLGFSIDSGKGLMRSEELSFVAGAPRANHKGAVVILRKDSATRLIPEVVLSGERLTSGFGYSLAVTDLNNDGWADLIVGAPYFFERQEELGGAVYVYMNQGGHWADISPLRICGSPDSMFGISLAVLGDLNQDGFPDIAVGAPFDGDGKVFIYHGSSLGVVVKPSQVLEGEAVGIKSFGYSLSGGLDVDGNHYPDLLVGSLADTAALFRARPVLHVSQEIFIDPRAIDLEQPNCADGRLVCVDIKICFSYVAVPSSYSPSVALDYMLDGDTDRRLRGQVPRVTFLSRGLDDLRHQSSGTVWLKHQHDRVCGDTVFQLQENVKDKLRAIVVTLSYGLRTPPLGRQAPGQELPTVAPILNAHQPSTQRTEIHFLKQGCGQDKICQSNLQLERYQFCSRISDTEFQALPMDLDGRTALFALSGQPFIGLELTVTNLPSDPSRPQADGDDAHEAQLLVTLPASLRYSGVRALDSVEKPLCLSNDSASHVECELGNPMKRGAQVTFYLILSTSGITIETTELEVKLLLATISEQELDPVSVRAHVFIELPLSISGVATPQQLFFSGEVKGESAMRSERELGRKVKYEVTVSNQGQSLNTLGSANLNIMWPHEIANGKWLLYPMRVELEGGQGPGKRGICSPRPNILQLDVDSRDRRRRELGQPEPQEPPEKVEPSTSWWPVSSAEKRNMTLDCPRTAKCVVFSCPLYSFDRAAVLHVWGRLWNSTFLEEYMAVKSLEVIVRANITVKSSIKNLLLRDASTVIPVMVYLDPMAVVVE
T2 sequence (P09055 21-728 limits assumed, chain 2 of 2): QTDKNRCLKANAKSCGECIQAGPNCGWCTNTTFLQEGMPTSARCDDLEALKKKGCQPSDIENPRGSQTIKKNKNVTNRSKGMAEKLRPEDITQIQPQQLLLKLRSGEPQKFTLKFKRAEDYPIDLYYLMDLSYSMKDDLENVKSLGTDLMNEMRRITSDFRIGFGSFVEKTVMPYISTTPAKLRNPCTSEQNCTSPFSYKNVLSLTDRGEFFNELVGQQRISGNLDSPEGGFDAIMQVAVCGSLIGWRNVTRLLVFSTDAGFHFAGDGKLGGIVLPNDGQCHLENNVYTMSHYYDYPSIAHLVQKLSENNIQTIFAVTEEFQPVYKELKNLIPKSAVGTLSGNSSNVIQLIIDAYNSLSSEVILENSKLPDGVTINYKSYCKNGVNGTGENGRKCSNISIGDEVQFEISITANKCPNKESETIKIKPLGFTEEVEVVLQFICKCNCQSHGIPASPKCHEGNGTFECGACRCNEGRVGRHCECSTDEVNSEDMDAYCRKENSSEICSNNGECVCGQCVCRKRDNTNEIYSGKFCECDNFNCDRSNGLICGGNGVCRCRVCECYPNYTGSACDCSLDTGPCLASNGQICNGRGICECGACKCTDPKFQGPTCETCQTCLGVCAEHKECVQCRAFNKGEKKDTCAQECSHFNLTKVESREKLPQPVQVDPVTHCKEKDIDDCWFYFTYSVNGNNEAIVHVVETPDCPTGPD
T1 sequence (Q13683 other isoform, or with tags, fused parts or gaps limits assumed, chain 1 of 2): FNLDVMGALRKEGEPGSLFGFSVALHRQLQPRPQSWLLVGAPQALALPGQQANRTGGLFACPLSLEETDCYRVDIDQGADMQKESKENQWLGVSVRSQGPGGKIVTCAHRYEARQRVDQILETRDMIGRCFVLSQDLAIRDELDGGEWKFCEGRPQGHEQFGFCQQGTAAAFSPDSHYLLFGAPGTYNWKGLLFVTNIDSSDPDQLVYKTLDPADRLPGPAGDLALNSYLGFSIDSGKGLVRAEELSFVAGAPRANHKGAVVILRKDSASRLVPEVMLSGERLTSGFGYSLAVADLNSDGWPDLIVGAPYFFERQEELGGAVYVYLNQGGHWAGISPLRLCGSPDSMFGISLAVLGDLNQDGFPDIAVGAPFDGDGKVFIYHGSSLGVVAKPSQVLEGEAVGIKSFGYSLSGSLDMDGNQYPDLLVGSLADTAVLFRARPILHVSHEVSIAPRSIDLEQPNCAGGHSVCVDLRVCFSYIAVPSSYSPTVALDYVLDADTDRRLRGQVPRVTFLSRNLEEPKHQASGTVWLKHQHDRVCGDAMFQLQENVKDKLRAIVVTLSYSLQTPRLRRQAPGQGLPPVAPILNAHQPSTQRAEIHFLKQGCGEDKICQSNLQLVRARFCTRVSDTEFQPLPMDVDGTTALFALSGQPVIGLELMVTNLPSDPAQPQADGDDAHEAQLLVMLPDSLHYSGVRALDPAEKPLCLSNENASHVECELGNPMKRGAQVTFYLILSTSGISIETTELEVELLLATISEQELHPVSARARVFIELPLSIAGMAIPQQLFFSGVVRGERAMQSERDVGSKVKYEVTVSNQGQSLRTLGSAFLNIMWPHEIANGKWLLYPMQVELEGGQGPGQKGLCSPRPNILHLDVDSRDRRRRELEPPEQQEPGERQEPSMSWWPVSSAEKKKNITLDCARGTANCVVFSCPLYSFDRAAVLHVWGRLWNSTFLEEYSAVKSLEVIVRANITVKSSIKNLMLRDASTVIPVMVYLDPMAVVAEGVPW
T1 sequence (P05556 21-728 limits assumed, chain 2 of 2): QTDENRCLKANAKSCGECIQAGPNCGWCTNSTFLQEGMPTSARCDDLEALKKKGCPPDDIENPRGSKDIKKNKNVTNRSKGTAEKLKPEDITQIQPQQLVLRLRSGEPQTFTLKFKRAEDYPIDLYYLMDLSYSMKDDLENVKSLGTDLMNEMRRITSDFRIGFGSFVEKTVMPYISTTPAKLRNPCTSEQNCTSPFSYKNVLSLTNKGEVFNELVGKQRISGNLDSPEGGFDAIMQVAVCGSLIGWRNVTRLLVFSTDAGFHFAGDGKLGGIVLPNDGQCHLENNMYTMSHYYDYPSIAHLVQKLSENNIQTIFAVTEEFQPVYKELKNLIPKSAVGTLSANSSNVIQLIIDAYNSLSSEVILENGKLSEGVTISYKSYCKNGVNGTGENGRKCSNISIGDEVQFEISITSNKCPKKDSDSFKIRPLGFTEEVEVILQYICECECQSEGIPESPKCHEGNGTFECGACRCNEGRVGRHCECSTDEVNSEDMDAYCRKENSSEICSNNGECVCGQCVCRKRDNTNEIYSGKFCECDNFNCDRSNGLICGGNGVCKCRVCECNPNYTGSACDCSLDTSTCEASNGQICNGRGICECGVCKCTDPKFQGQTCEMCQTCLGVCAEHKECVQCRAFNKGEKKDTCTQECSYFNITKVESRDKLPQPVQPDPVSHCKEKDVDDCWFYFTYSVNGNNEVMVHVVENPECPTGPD
Chain of human α6β1 integrin (P23229 other isoform, or with tags, fused parts or gaps limits assumed, chain 1 of 2): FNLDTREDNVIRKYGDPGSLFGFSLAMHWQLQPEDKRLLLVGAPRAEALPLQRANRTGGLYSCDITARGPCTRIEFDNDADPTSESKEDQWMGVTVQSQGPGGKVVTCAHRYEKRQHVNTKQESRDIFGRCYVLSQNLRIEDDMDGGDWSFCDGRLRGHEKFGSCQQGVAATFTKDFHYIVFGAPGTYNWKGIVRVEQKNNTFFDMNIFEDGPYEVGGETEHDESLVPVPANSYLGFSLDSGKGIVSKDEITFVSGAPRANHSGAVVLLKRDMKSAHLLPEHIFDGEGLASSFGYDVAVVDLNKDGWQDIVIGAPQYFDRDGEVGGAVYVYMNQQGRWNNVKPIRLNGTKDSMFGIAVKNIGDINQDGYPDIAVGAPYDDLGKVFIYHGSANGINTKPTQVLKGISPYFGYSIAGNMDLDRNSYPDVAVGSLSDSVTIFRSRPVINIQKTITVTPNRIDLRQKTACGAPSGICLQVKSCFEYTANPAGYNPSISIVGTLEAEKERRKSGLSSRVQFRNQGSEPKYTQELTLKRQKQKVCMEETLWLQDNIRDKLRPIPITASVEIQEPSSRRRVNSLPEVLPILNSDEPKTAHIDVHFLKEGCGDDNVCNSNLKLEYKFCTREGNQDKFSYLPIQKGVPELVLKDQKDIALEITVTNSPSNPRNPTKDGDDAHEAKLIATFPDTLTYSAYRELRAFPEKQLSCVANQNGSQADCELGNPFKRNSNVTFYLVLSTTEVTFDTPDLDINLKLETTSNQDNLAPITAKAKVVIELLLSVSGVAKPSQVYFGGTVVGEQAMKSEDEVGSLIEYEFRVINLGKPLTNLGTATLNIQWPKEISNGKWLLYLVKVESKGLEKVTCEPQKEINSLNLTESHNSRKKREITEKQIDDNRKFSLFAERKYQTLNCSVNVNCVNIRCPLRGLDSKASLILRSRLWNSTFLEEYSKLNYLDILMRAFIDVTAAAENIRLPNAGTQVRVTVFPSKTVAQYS
Chain of human α6β1 integrin (P05556 21-728 limits assumed, chain 2 of 2): as the sequence (P05556 21-728 limits assumed, chain 2 of 2) above

B1: mouse α7β1 antibody VLVH (Chimera with human IgG4 Fc) (antibody, V domains shown)
VH: QVQLQQPGAELVKPGASVKLSCKASGYNFTKYWINWVKQRPGQGLEWIGIIYPGSSTSNYNEKFKTKATLTVEISSTTAYMQLSSLTSDDSAVYYCVRGDDWGQGTTLTVSS
VL: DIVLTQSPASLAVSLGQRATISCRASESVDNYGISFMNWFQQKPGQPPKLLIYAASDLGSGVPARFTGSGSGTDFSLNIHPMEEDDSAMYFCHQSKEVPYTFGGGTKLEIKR
notes: also called hIgG4-23; murine antibody (VLVH)
With B1, in the experiment with Human Integrin α7β1 [1], the Kd was 1.96 nM, the koff came to 0.000652 s⁻¹ and the association rate constant (kon) is 333000 M⁻¹ s⁻¹. In addition, in the experiment with Mouse Integrin α7β1 [2], the equilibrium dissociation constant (Kd) amounted to 21.8 nM, the off-rate (koff) was found to be 0.00213 s⁻¹ and the kon is 97600 M⁻¹ s⁻¹.

B2: antibody M38 (antibody, V domains shown)
VH: B1 VH
VL: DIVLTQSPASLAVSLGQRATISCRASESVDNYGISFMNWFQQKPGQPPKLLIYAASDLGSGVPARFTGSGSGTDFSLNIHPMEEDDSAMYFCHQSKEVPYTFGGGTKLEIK
notes: Mouse hybridoma monoclonal antibody
As for B2, the binding result with human α6β1 integrin and in the experiment with human α5β1 integrin was “no binding” throughout.

B3: antibody M36 (antibody, V domains shown)
VH: B1 VH
VL: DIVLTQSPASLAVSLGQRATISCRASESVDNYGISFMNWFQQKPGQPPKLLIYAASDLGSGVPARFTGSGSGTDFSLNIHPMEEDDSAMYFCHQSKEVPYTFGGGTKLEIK
notes: Mouse hybridoma monoclonal antibody; also called M36 agonist antibody
With B3, the binding result with human α6β1 integrin and with human α5β1 integrin was “no binding” in each case.

B4: VL3VHK20TFT monoclonal antibody (antibody, human IgG4 S228P, kappa, V domains shown)
VH: QVQLVQSGAEVKKPGASVKVSCKASGYTFTKYWINWVRQAPGQGLEWMGIIYPGSSTSNYNEKFKTRVTMTVDTSTSTAYMELSSLRSEDTAVYYCVKNDNWGQGTLVTVSS
VL: DIQMTQSPSSLSASVGDRVTITCRASESVDNYGISFMNWFQQKPGKAPKLLIYAASDLGSGVPSRFSGSGSGTDFTLTISSLQPEDFATYYCHQSKEVPYTFGQGTKLEIKR
notes: Humanized M36/M38; also called hIgG4-36; hIgG-36
In the case of B4, the “Signal:Background” value in [3] is 18 ratio signal:background. In the experiment with Human Integrin α7β1 [4], the “fold lower KD than the chimera antibody VLVH” value is around 3.33 fold. In addition, in the experiment with Mouse Integrin α7β1 [5], the “fold lower KD than the chimera antibody VLVH” value was around 11.1 fold. Moreover, the “cell index (integrin α7β1 mediated cell adhesion) of DMD myoblast cells on laminin 211” value in experiment [6] is around 5 fold. Besides, in the experiment with Human Integrin α7β1 [1], the dissociation constant (Kd) came out at 0.593 nM, the dissociation rate constant (koff) turned out to be 0.000153 s⁻¹ and the association rate constant (kon) worked out at 258000 M⁻¹ s⁻¹. In the experiment with Mouse Integrin α7β1 [2], the equilibrium dissociation constant (Kd) was determined as 1.96 nM, the off-rate constant (koff) came out at 0.000469 s⁻¹ and the association rate constant (kon) stood at 239000 M⁻¹ s⁻¹.

B5: VL3VHK20TFT Fab (Fab, V domains shown)
VH: B4 VH
VL: DIQMTQSPSSLSASVGDRVTITCRASESVDNYGISFMNWFQQKPGKAPKLLIYAASDLGSGVPSRFSGSGSGTDFTLTISSLQPEDFATYYCHQSKEVPYTFGQGTKLEIK
notes: Fab of VL3VHK20TFT; also called VL3VHK20TFT Fab HS; Test Fab
For B5, in experiment [7], the “Signal:Background” value was 12 ratio signal:background. The “Binding Reactivity (% WT)” value is -0.7 % WT in experiment [8], -0.3 % WT in experiment [9], 27.8 % WT in [10] and 29.5 % WT in experiment [11].
